{
  "source": "patent US20250171535A1",
  "about": "“COMPOSITIONS AND METHODS FOR DEPLETION OF DISEASED HEMATOPOIETIC STEM CELLS” (Jasper Therapeutics, Inc., priority 2022, published 2025)",
  "key": {"[1]": {"tested_on": "diseased HSC cells (CD34+CD45RA-CD117+ HSCs)", "assay": "Clinical study: depletion of diseased stem and progenitor cells in higher risk MDS or AML patients", "assay_type": "in vivo, human", "settings": "nine higher risk MDS or AML patients; single dose 0.6 mg/kg intravenously; 10-14 days post-treatment", "description": "FIG. 2 is a bar graph of the percent (%) depletion of CD34+CD45RA-CD117+ cells in nine myelodysplastic syndrome (MDS) and acute myeloid leukemia (AML) patients treated with a single dose of anti-c-kit antibody, measured 10-14 days post-treatment.\n(§1) Nine patients having either higher risk MDS or AML were treated with a single dose of 0.6 mg/kg JSP191 administered intravenously."}, "[2]": {"assay": "Clinical study: safety and tolerability in higher risk MDS or AML patients", "assay_type": "in vivo, human", "settings": "0.6 mg/kg intravenously", "description": "as §1"}},
  "data": [
    {"substance": "JSP191: aglycosylated IgG1 humanized anti-c-kit (CD117) antibody, humanized form of murine SR1; heavy chain SEQ ID NO: 2, light chain SEQ ID NO: 3", "values": [
      {"measurement": "depletion of diseased HSC cells (CD34+CD45RA-CD117+ HSCs)", "setting": "[1]", "result": "30-95%"},
      {"measurement": "JSP191-related infusion reactions", "setting": "[2]", "result": "No significant JSP191-related infusion reactions were observed"},
      {"measurement": "adverse events", "setting": "[2]", "result": "no significant adverse events were observed"},
      {"measurement": "safety and tolerability", "setting": "[2]; ongoing clinical trial", "result": "safe and well-tolerated"}
    ]}
  ]
}
